In publication PMC10482388, “A novel homeostatic mechanism tunes PI(4,5)P2-dependent signaling at the plasma membrane” (Journal of Cell Science, 2023):

Target: (Gly)5–PIP5K1A (aa 1–546), purified human PIP5K1A (human, UniProt Q99755 1-546)
Experiment: cell-based or functional assay

(Gly)5–PIP5K1A (aa 1–546), purified human PIP5K1A, sequence (Q99755 other isoform, or with tags, fused parts or gaps): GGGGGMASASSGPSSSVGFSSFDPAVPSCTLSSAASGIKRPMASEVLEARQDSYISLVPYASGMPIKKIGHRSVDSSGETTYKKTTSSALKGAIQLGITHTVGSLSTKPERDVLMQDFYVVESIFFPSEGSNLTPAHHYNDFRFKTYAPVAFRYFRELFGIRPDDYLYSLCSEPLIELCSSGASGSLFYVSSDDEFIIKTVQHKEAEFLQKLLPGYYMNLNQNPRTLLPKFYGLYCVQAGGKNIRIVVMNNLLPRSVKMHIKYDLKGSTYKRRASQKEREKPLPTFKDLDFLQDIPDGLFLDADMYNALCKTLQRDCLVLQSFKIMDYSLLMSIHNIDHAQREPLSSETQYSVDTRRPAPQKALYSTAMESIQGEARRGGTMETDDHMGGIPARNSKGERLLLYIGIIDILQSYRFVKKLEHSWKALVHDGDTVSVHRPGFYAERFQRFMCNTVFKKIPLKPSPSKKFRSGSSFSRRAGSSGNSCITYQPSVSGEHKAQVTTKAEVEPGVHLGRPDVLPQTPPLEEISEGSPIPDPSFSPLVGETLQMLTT

kinetics of PI(4,5)P2 production on PI4P-containing supported lipid bilayers, 1 nM PIP5K1A with or without 50 nM PIP4K2A; time to completion of the reaction: 2 fold (reaction completion time)
B1: (Gly)5–PIP4K2A (aa 1–406), purified human PIP4K2A (enzyme)
chain: GGGGGMATPGNLGSSVLASKTKTKKKHFVAQKVKLFRASDPLLSVLMWGVNHSINELSHVQIPVMLMPDDFKAYSKIKVDNHLFNKENMPSHFKFKEYCPMVFRNLRERFGIDDQDFQNSLTRSAPLPNDSQARSGARFHTSYDKRYIIKTITSEDVAEMHNILKKYHQYIVECHGITLLPQFLGMYRLNVDGVEIYVIVTRNVFSHRLSVYRKYDLKGSTVAREASDKEKAKELPTLKDNDFINEGQKIYIDDNNKKVFLEKLKKDVEFLAQLKLMDYSLLVGIHDVERAEQEEVECEENDGEEEGESDGTHPVGTPPDSPGNTLNSSPPLAPGEFDPNIDVYGIKCHENSPRKEVYFMAIIDILTHYDAKKKAAHAAKTVKHGAGAEISTVNPEQYSKRFLDFIGHILT
modifications: fluorescently labelled LPETGG peptide (Alexa Fluor 488, Alexa Fluor 647 or Cy5) ligated by sortase onto the N-terminal (Gly)5 motif
